Test results reported in FireProtDB (doi:10.1021/bi100877y).
Where “and” joins values, the source holds several entries; their conditions need not be identical. Equal entries are not always repeated.

B1: Outer membrane porin C, P06996 (parent)
chain: MKVKVLSLLVPALLVAGAANAAEVYNKDGNKLDLYGKVDGLHYFSDNKDVDGDQTYMRLGFKGETQVTDQLTGYGQWEYQIQGNSAENENNSWTRVAFAGLKFQDVGSFDYGRNYGVVYDVTSWTDVLPEFGGDTYGSDNFMQQRGNGFATYRNTDFFGLVDGLNFAVQYQGKNGNPSGEGFTSGVTNNGRDALRQNGDGVGGSITYDYEGFGIGGAISSSKRTDAQNTAAYIGNGDRAETYTGGLKYDANNIYLAAQYTQTYNATRVGSLGWANKAQNFEAVAQYQFDFGLRPSLAYLQSKGKNLGRGYDDEDILKYVDVGATYYFNKNMSTYVDYKINLLDDNQFTRDAGINTDNIVALGLVYQF

Variants of: B1
Settings: Escherichia coli (strain K12), pH 7, Thermal, phosphate 50 mM, structure 2J1N, whole UniProt chain shown

MKVKVLSLLVPALLVAGAANAAEVYNKDGNKLDLYGKVDGLHYFSDNKDVDGDQTYMRLGFKGETQVTDQLTGYGQWEYQIQGNSAENENNSWTRVAFAGLKFQDVGSFDYGRNYGVVYDVTSWTGVLPEFGGDTYGSDNFMQQRGNGFATYRNTDFFGLVDGLNFAVQYQGKNGNPSGEGFTSGVTNNGRDALRQNGDGVGGSITYDYEGFGIGGAISSSKRTDAQNTAAYIGNGDRAETYTGGLKYDANNIYLAAQYTQTYNATRVGSLGWANKAQNFEAVAQYQFDFGLRPSLAYLQSKGKNLGRGYDDEDILKYVDVGATYYFNKNMSTYVDYKINLLDDNQFTRDAGINTDNIVALGLVYQF [D126G]
Tm (DSC): 81.5 °C | change of melting temperature, mutant - wild type (higher = more stable) (DSC): -5.44 °C | unfolding enthalpy (calorimetric) (DSC): 304 kcal/mol

MKVKVLSLLVPALLVAGAANAAEVYNKDGNKLDLYGKVDGLHYFSDNKDVDGDQTYMHLGFKGETQVTDQLTGYGQWEYQIQGNSAENENNSWTRVAFAGLKFQDVGSFDYGRNYGVVYDVTSWTDVLPEFGGDTYGSDNFMQQRGNGFATYRNTDFFGLVDGLNFAVQYQGKNGNPSGEGFTSGVTNNGRDALRQNGDGVGGSITYDYEGFGIGGAISSSKRTDAQNTAAYIGNGDRAETYTGGLKYDANNIYLAAQYTQTYNATRVGSLGWANKAQNFEAVAQYQFDFGLRPSLAYLQSKGKNLGRGYDDEDILKYVDVGATYYFNKNMSTYVDYKINLLDDNQFTRDAGINTDNIVALGLVYQF [R58H]
change of melting temperature, mutant - wild type (higher = more stable) (CD): -1.5 °C and -1.1 °C and -2 °C | Tm (DSC): 87.3 °C | change of melting temperature, mutant - wild type (higher = more stable) (DSC): 0.31 °C | unfolding enthalpy (calorimetric) (DSC): 359 kcal/mol

MKVKVLSLLVPALLVAGAANAAEVYNKDGNKLDLYGKVDGLHYFSDNKDVDGDQTYMRLGFKGETQVTDQLTGYGQWEYQIQGNSAENENNSWTAVAFAGLKFQDVGSFDYGRNYGVVYDVTSWTGVLPEFGGDTYGSDNFMQQRGNGFATYRNTDFFGLVDGLNFAVQYQGKNGNPSGEGFTSGVTNNGRDALRQNGDGVGGSITYDYEGFGIGGAISSSKRTDAQNTAAYIGNGDRAETYTGGLKYDANNIYLAAQYTQTYNATRVGSLGWANKAQNFEAVAQYQFDFGLRPSLAYLQSKGKNLGRGYDDEDILKYVDVGATYYFNKNMSTYVDYKINLLDDNQFTRDAGINTDNIVALGLVYQF [R95A D126G]
Tm (DSC): 73.9 °C | change of melting temperature, mutant - wild type (higher = more stable) (DSC): -13 °C | unfolding enthalpy (calorimetric) (DSC): 192 kcal/mol

MKVKVLSLLVPALLVAGAANAAEVYNKDGNKLDLYGKVDGLHYFSDNKDVDGDQTYMRLGFKGETQVTDQLTGYGQWEYQIQGNSAENENNSWTSVAFAGLKFQDVGSFDYGRNYGVVYDVTSWTDVLPEFGGDTYGSDNFMQQRGNGFATYRNTDFFGLVDGLNFAVQYQGKNGNPSGEGFTSGVTNNGRDALRQNGDGVGGSITYDYEGFGIGGAISSSKRTDAQNTAAYIGNGDRAETYTGGLKYDANNIYLAAQYTQTYNATRVGSLGWANKAQNFEAVAQYQFDFGLRPSLAYLQSKGKNLGRGYDDEDILKYVDVGATYYFNKNMSTYVDYKINLLDDNQFTRDAGINTDNIVALGLVYQF [R95S]
change of melting temperature, mutant - wild type (higher = more stable) (CD): -1.8 °C and -6.8 °C | Tm (DSC): 81.7 °C | change of melting temperature, mutant - wild type (higher = more stable) (DSC): -5.26 °C | unfolding enthalpy (calorimetric) (DSC): 299 kcal/mol

MKVKVLSLLVPALLVAGAANAAEVYNKDGNKLDLYGKVDGLHYFSDNKDVDGDQTYMRLGFKGETQVTDQLTGYGQWEYQIQGNSAENENNSWTGVAFAGLKFQDVGSFDYGRNYGVVYDVTSWTDVLPEFGGDTYGSDNFMQQRGNGFATYRNTDFFGLVDGLNFAVQYQGKNGNPSGEGFTSGVTNNGRDALRQNGDGVGGSITYDYEGFGIGGAISSSKRTDAQNTAAYIGNGDRAETYTGGLKYDANNIYLAAQYTQTYNATRVGSLGWANKAQNFEAVAQYQFDFGLRPSLAYLQSKGKNLGRGYDDEDILKYVDVGATYYFNKNMSTYVDYKINLLDDNQFTRDAGINTDNIVALGLVYQF [R95G]
Tm (CD): 68.1 °C | change of melting temperature, mutant - wild type (higher = more stable) (CD): -1.8 °C | Tm (DSC): 80.8 °C | change of melting temperature, mutant - wild type (higher = more stable) (DSC): -6.19 °C | unfolding enthalpy (calorimetric) (DSC): 326 kcal/mol

MKVKVLSLLVPALLVAGAANAAEVYNKDGNKLDLYGKVDGLHYFSDNKDVDGDQTYMRLGFKGETQVTDQLTGYGQWEYQIQGNSAENENNSWTAVAFAGLKFQDVGSFDYGRNYGVVYDVTSWTDVLPEFGGDTYGSDNFMQQRGNGFATYRNTDFFGLVDGLNFAVQYQGKNGNPSGEGFTSGVTNNGRDALRQNGDGVGGSITYDYEGFGIGGAISSSKRTDAQNTAAYIGNGDRAETYTGGLKYDANNIYLAAQYTQTYNATRVGSLGWANKAQNFEAVAQYQFDFGLRPSLAYLQSKGKNLGRGYDDEDILKYVDVGATYYFNKNMSTYVDYKINLLDDNQFTRDAGINTDNIVALGLVYQF [R95A]
Tm (DSC): 81.3 °C | change of melting temperature, mutant - wild type (higher = more stable) (DSC): -5.66 °C | unfolding enthalpy (calorimetric) (DSC): 258 kcal/mol

MKVKVLSLLVPALLVAGAANAAEVYNKDGNKLDLYGKVDGLHYFSDNKDVDGDQTYMRLGFKGETQVTDQLTGYGQWEYQIQGNSAENENNSWTCVAFAGLKFQDVGSFDYGRNYGVVYDVTSWTDVLPEFGGDTYGSDNFMQQRGNGFATYRNTDFFGLVDGLNFAVQYQGKNGNPSGEGFTSGVTNNGRDALRQNGDGVGGSITYDYEGFGIGGAISSSKRTDAQNTAAYIGNGDRAETYTGGLKYDANNIYLAAQYTQTYNATRVGSLGWANKAQNFEAVAQYQFDFGLRPSLAYLQSKGKNLGRGYDDEDILKYVDVGATYYFNKNMSTYVDYKINLLDDNQFTRDAGINTDNIVALGLVYQF [R95C]
Tm (CD): 68.4 °C | change of melting temperature, mutant - wild type (higher = more stable) (CD): -1.5 °C | Tm (DSC): 84.6 °C | change of melting temperature, mutant - wild type (higher = more stable) (DSC): -2.35 °C | unfolding enthalpy (calorimetric) (DSC): 297 kcal/mol
